Columns and labels:
Experiment in all cases: SPR
[1] = biological target: CVB3/MKP3 (VP3-234Q) full particles (coxsackievirus B3, strain MKP)
[2] = biological target: CVB3/GS12-55/GS/CHN/2012 (VP3-234V) full particles (coxsackievirus B3, isolate GS12-55/GS/CHN/2012)
[3] = biological target: CVB3/HuN16-54/HuN/CHN/2016 (VP3-234D) full particles (coxsackievirus B3, isolate HuN16-54/HuN/CHN/2016)
[4] = biological target: CVB3/XJ12-36/XJ/CHN/2012 (VP3-234N) full particles (coxsackievirus B3, isolate XJ12-36/XJ/CHN/2012)

Substance	Kd [1] [µM]	Kd [2] [µM]	Kd [3] [µM]	Kd [4] [µM]
soluble extracellular D1 and D2 domains of the human CAR protein (from UniProt P78310 20-236) (receptor)	3.16			
soluble extracellular domain of the human CD55 protein (from UniProt P08174 35-285) (receptor)	0.465	10	46	7.8

From paper PMC8794823
